The source of these data is patent US8580556B2, “Sulfonylurea-responsive repressor proteins” (E. I. du Pont de Nemours and Company, priority 2008, dated 2013).

For this data set, the system named is tetA promoter (PtetA)-lacZ reporter in E. coli KM3. The class given is cell-based. The following applies: for relative β-galactosidase activity, inducer atc / relative β-galactosidase activity, inducer Ci / relative β-galactosidase activity, inducer Cs / relative β-galactosidase activity, inducer Es / relative β-galactosidase activity, inducer Ms / relative β-galactosidase activity, inducer Ns / relative β-galactosidase activity, inducer Blank / relative β-galactosidase activity, inducer Rs / relative β-galactosidase activity, inducer Sm / relative β-galactosidase activity, inducer Ts / relative β-galactosidase activity, inducer Tb: Table 6, reverse repressor hits; for relative β-galactosidase activity, inducer atc: anhydrotetracycline; for relative β-galactosidase activity, inducer Ci: chlorimuron; for relative β-galactosidase activity, inducer Ci / relative β-galactosidase activity, inducer Cs / relative β-galactosidase activity, inducer Es / relative β-galactosidase activity, inducer Ms / relative β-galactosidase activity, inducer Ns / relative β-galactosidase activity, inducer Rs / relative β-galactosidase activity, inducer Sm / relative β-galactosidase activity, inducer Ts / relative β-galactosidase activity, inducer Tb: same plate assay format as Table 4; for relative β-galactosidase activity, inducer Cs: chlorsulfuron; for relative β-galactosidase activity, inducer Es: ethametsulfuron; for relative β-galactosidase activity, inducer Ms: metsulfuron; for relative β-galactosidase activity, inducer Ns: nicosulfuron; for relative β-galactosidase activity, inducer Blank / Control 84 hr (colony color intensity, background activity without inducer): no inducer; for relative β-galactosidase activity, inducer Rs: rimsulfuron; for relative β-galactosidase activity, inducer Sm: sulfometuron; for relative β-galactosidase activity, inducer Ts: thifensulfuron; for relative β-galactosidase activity, inducer Tb: tribenuron; for 0.2 ppm 48 hr (colony color intensity, induction by chlorsulfuron) / Control 84 hr (colony color intensity, background activity without inducer): M9 assay plates, colony color intensity by ImageJ; for 0.2 ppm 48 hr (colony color intensity, induction by chlorsulfuron): 0.2 ppm chlorsulfuron as inducer, 48 hr at 30° C.; for Control 84 hr (colony color intensity, background activity without inducer): 84 hr at 30° C.

B1: L1-33: library L1 reverse repressor hit (SEQ ID NO: 1206-1213) (protein)
chain: MGSRLDKSKVINSALELLNEVGIEGLTTRKLAQKLGVEQPTLYWHVKNKRALLDALAIEMLDRHATHFCPLEGESWQDFLRNNAKSMRCALLSHRDGAKVQLGTAATEKQYETLENKLAFLCQQGFSLENALYAHSAVTQFTLGCVLRDQEGQVAKEERETPTTDSMPPLLRQARELRDHQGAEPAFLFGLELIICGLEKQLKCESGS
modifications: rSuR L1-33
As for B1, the “relative β-galactosidase activity, inducer atc” value was 8.25; the “relative β-galactosidase activity, inducer Ci” value is on record as 0.76; the “relative β-galactosidase activity, inducer Cs” value is 3.74; the “relative β-galactosidase activity, inducer Es” value is recorded as 2.11. The “relative β-galactosidase activity, inducer Ms” value was 4.29; the “relative β-galactosidase activity, inducer Ns” value came to 5.34; the “relative β-galactosidase activity, inducer Blank” value is 7.59; the “relative β-galactosidase activity, inducer Rs” value was determined as 10.32. For the same molecule, the “relative β-galactosidase activity, inducer Sm” value was 5.02; the “relative β-galactosidase activity, inducer Ts” value is recorded as 5.51; the “relative β-galactosidase activity, inducer Tb” value came to 4.71.

B2: L1-18: library L1 reverse repressor hit (SEQ ID NO: 1206-1213) (protein)
chain: MGSRLDKSKVINSALELLNEVGIEGLTTRKLAQKLGVEQPTLYWHVKNKRALLDALAIEMLDRHLTHFCPLEGESWQDFLRNNAKSMRCALLSHRDGAKVWLGTGFTEKQYETKENRLAFLCQQGFSLENALYAIRAVSRFTLGCVLQDQEPQVAKEERETPTTDSMPPLLRQAVELFDHQGAEPAFLFGLELIICGLEKQLKCESES
modifications: rSuR L1-18
B2: the “relative β-galactosidase activity, inducer atc” value amounted to 2.35; the “relative β-galactosidase activity, inducer Ci” value is recorded as 0.36; the “relative β-galactosidase activity, inducer Cs” value was determined as 1.22; the “relative β-galactosidase activity, inducer Es” value is on record as 0.37. For the same molecule, the “relative β-galactosidase activity, inducer Ms” value was determined as 0.79; the “relative β-galactosidase activity, inducer Ns” value is on record as 1.44; the “relative β-galactosidase activity, inducer Blank” value was 1.34; the “relative β-galactosidase activity, inducer Rs” value is reported as 2.55. Moreover, the “relative β-galactosidase activity, inducer Sm” value turned out to be 0.94; the “relative β-galactosidase activity, inducer Ts” value is reported as 1.13; the “relative β-galactosidase activity, inducer Tb” value was 1.65.

B3: L1-25: library L1 reverse repressor hit (SEQ ID NO: 1206-1213) (protein)
chain: MGSRLDKSKVINSALELLNEVGIEGLTTRKLAQKLGVEQPTLYWHVKNKRALLDALAIEMLDRHATHFCPLEGESWQDFLRNTAKSMRCALLSHRDGAKVLLGTATTEKQYETLENLLAFLYQQGFSLENALYAWQAVWRFTLGCVLIDQETQVAKEERETPTTDSMPPLLRQAVELKDHQGAEPAFLFGLELIICGLEKQLKCETGS
modifications: rSuR L1-25
On to B3, for which the “relative β-galactosidase activity, inducer atc” value is recorded as 1.22; the “relative β-galactosidase activity, inducer Ci” value worked out at 0.11; the “relative β-galactosidase activity, inducer Cs” value was 0.28; the “relative β-galactosidase activity, inducer Es” value worked out at 0.13. Besides, the “relative β-galactosidase activity, inducer Ms” value is reported as 0.32; the “relative β-galactosidase activity, inducer Ns” value worked out at 1.21; the “relative β-galactosidase activity, inducer Blank” value was 1.17; the “relative β-galactosidase activity, inducer Rs” value amounted to 1.08. In addition, the “relative β-galactosidase activity, inducer Sm” value is 0.63; the “relative β-galactosidase activity, inducer Ts” value was found to be 0.64; the “relative β-galactosidase activity, inducer Tb” value was found to be 1.72.

B4: L1-34: library L1 reverse repressor hit (SEQ ID NO: 1206-1213) (protein)
chain: MGSRLDKSKVINSALELLNEVGIEGLTTRKLAQKLGVEQPTLYWHVKNKRALLDALAIEMADRHNTHFCPLEGESWQDFLRNAARSMRCALLSHRDGAKVYLGTARTEKQYETTENVLAFLCQQGFSLENALYAVRAVPRFTLGCVLLDQERQVAKEERETPTTDSMPPLLRQARELTDHQGAEPAFLFGLELIICGLEKQLKCESGS
modifications: rSuR L1-34
Take B4: the “relative β-galactosidase activity, inducer atc” value was determined as 3.68; the “relative β-galactosidase activity, inducer Ci” value is reported as 0.43; the “relative β-galactosidase activity, inducer Cs” value worked out at 0.85; the “relative β-galactosidase activity, inducer Es” value stood at 1.33. Also, the “relative β-galactosidase activity, inducer Ms” value was determined as 1.47; the “relative β-galactosidase activity, inducer Ns” value is reported as 2.91; the “relative β-galactosidase activity, inducer Blank” value came out at 2.37; the “relative β-galactosidase activity, inducer Rs” value is recorded as 2.30. Moreover, the “relative β-galactosidase activity, inducer Sm” value is given as 2.00; the “relative β-galactosidase activity, inducer Ts” value is reported as 2.97; the “relative β-galactosidase activity, inducer Tb” value turned out to be 2.26.

B5: L6-1B03 (protein)
chain: MGSRLDKSKVINSALELLNEVGIEGLTTRKLAQKLGVEQPTLYWHVKNKRALLDALAIEMMDRHATHICPLEGESWQDFLRNNAKSMRCALLSHRDGAKVCLGTRWTEQQYEAAENMLAFLCQQGFSLENALYAVSAVRVFTLGCVLFDQESQVAKEERETPTTASMPPLLRQAWELKDHQGAEPAFLFGLELIICGLEKQLKCESGS
modifications: Sulfonylurea responsive repressor L6-1B03
As to B5, the “0.2 ppm 48 hr/Control 84 hr” value came out at 4.6; the “0.2 ppm 48 hr (colony color intensity, induction by chlorsulfuron)” value came out at 30.0; the “Control 84 hr (colony color intensity, background activity without inducer)” value is on record as 6.6.

B6: L6-3H02: SuR polypeptide, SEQ ID NO: 94 (protein)
chain: MGSRLDKSKVINSALELLNEVGIEGLTTRKLAQKLGVEQPTLYWHVKNKRALLDALAIEMMDRHATHYCPLEGESWQDFLRNTAKSMRCALLSHRDGAKVCLGTRWTEQHYESAENMLAFLCQQGFSLENALYAVSAVRVFTLGCVLFDQESQVAKEERETPTTASMPPLVRQAWELKVHQGAEPAFLFGLELIICGLEKQLKCESGS
modifications: Sulfonylurea responsive repressor L6-3H02
Regarding B6, the “0.2 ppm 48 hr/Control 84 hr” value is on record as 2.8 and the “Control 84 hr (colony color intensity, background activity without inducer)” value is on record as 5.6.

B7: L6-2D07 (protein)
chain: MGSRLDKSKVINSALELLNEVGIEGLTTRKLAQKLGVEQPTLYWHVKNKRALLDALAIEMMDRHQTHFCPLEGESWQDFLRNTAKSMRCALLSHRDGAKVCLGTRWTEQQYETAENMLAFLCQQGFSLENALYAMSAVRVFTLGCVLFDQESQVAKEERETPTTASMPPLVRQAWELKDHQGAEPAFLFGLELIICGLEKQLKCESGS
modifications: Sulfonylurea responsive repressor L6-2D07
Consider B7, for which the “0.2 ppm 48 hr/Control 84 hr” value is 3.4; the “0.2 ppm 48 hr (colony color intensity, induction by chlorsulfuron)” value is 20.0; the “Control 84 hr (colony color intensity, background activity without inducer)” value is reported as 5.8.

B8: L6-4D10 (protein)
chain: MGSRLDKSKVINSALELLNEVGIEGLTTRKLAQKLGVEQPTLYWHVKNKRALLDALAIEMMDRHQTHYCPLEGESWQDFLRNNAKSMRCALLSHRDGAKVCLGTRWTEKQYESAENMLAFLCQQGFSLENALYAVSAVRVFTLGCVLFDQESQVAKEERETPTTASMPPLLRQAWELKDHQGAEPAFLFGLELIICGLEKQLKCESGS
modifications: Sulfonylurea responsive repressor L6-4D10
For B8, the “0.2 ppm 48 hr/Control 84 hr” value is on record as 3.7 and the “Control 84 hr (colony color intensity, background activity without inducer)” value amounted to 5.0.

B9: L6-2C09 (protein)
chain: MGSRLDKSKVINSALELLNEVGIEGLTTRKLAQKLGVEQPTLYWHVKNKRALLDALAIEMMDRHQTHYCPLEGESWQDFLRNTAKSMRCALLSHRDGAKVCLGTRWTEQLYETAENQLAFLCQQGFSLENALYAMSAVRVFTLGCVLFDQELQVAKEERETPTTASMPPLLRQAWELKDHQGAEPAFLFGLELIICGLEKQLKCESGS
modifications: Sulfonylurea responsive repressor L6-2C09
On to B9, for which the “0.2 ppm 48 hr/Control 84 hr” value is on record as 2.6 and the “Control 84 hr (colony color intensity, background activity without inducer)” value is recorded as 5.2.

B10: L6-5F05 (protein)
chain: MGSRLDKSKVINSALELLNEVGIEGLTTRKLAQKLGVEQPTLYWHVKNKRALLDALAIEMMDRHATHICPLEGESWQDFLRNNAKSMRCALLSHRDGAKVCLGTRWTEQQYEAAENQLAFLCQQGFSLENALYAVSAVRVFTLGCVLFDQELQVAKEERETPTTASMPPLLRQAWELKDHQGAEPAFLFGLELIICGLEKQLKCESGS
modifications: Sulfonylurea responsive repressor L6-5F05
For B10, the “0.2 ppm 48 hr/Control 84 hr” value came out at 4.1; the “0.2 ppm 48 hr (colony color intensity, induction by chlorsulfuron)” value was 22.0; the “Control 84 hr (colony color intensity, background activity without inducer)” value turned out to be 5.4.

B11: L1-21: library L1 reverse repressor hit (SEQ ID NO: 1206-1213) (protein)
chain: MGSRLDKSKVINSALELLNEVGIEGLTTRKLAQKLGVEQPTLYWHVKNKRALLDALAIEMLDRHATHFCPLEGESWQDFLRNNAKSFRCALLSHRDGAKVCLGTAGTEKQYETLENCLAFLCQQGFSLENALYARSAVVCFTLGCVLFDQEMQVAKEERETPTTDSMPPLLRQAAELLDHQGAEPAFLFGLELIICGLEKQLKCESGS
modifications: rSuR L1-21
Regarding B11, the “relative β-galactosidase activity, inducer atc” value was found to be 2.81; the “relative β-galactosidase activity, inducer Ci” value worked out at 0.07; the “relative β-galactosidase activity, inducer Cs” value came out at 0.89; the “relative β-galactosidase activity, inducer Es” value was found to be 0.61. Moreover, the “relative β-galactosidase activity, inducer Ms” value is 0.89; the “relative β-galactosidase activity, inducer Ns” value is 2.74; the “relative β-galactosidase activity, inducer Blank” value came to 2.88; the “relative β-galactosidase activity, inducer Rs” value is listed as 2.31. Besides, the “relative β-galactosidase activity, inducer Sm” value was 2.39; the “relative β-galactosidase activity, inducer Ts” value worked out at 0.79; the “relative β-galactosidase activity, inducer Tb” value is 2.13.
